Measured values reported in patent publication US20170363643A1.

Tests used:
[1] = biological target: His-tagged recombinant human SMN protein (ProteinTech, catalog # ag14333) (human) (UniProt Q16637); assay: BLI (BLItz), His-tagged SMN immobilised on the biosensor tip, antibody in solution
[2] = biological target: His-tagged recombinant human SMN protein (ProteinTech, catalog # ag14333) (human) (UniProt Q16637); assay: Erenna sandwich assay, capture MABE230 12.5 µg/mg MPs; Det Ab 500 ng/mL; SMN 0.06 pg/mL
[3] = biological target: His-tagged recombinant human SMN protein (ProteinTech, catalog # ag14333) (human) (UniProt Q16637); assay: Erenna sandwich assay, capture MABE230 12.5 µg/mg MPs; Det Ab 500 ng/mL; SMN 0.93 pg/mL
[4] = biological target: His-tagged recombinant human SMN protein (ProteinTech, catalog # ag14333) (human) (UniProt Q16637); assay: Erenna sandwich assay, capture MABE230 12.5 µg/mg MPs; Det Ab 500 ng/mL; SMN 3.70 pg/mL
[5] = biological target: His-tagged recombinant human SMN protein (ProteinTech, catalog # ag14333) (human) (UniProt Q16637); assay: Erenna sandwich assay, capture MABE230 12.5 µg/mg MPs; Det Ab 1000 ng/mL; SMN 0.23 pg/mL
[6] = biological target: His-tagged recombinant human SMN protein (ProteinTech, catalog # ag14333) (human) (UniProt Q16637); assay: Erenna sandwich assay, capture MABE230 12.5 µg/mg MPs; Det Ab 1000 ng/mL; SMN 1.85 pg/mL
[7] = biological target: His-tagged recombinant human SMN protein (ProteinTech, catalog # ag14333) (human) (UniProt Q16637); assay: Erenna sandwich assay, capture MABE230 12.5 µg/mg MPs; Det Ab 1000 ng/mL; SMN 3.70 pg/mL
[8] = biological target: His-tagged recombinant human SMN protein (ProteinTech, catalog # ag14333) (human) (UniProt Q16637); assay: Erenna sandwich assay, capture MABE230 12.5 µg/mg MPs; Det Ab 1000 ng/mL; SMN 7.41 pg/mL
[9] = biological target: His-tagged recombinant human SMN protein (ProteinTech, catalog # ag14333) (human) (UniProt Q16637); assay: Erenna sandwich assay, capture MABE230 12.5 µg/mg MPs; Det Ab 500 ng/mL; SMN 66.67 pg/mL
[10] = biological target: His-tagged recombinant human SMN protein (ProteinTech, catalog # ag14333) (human) (UniProt Q16637); assay: Erenna sandwich assay, capture MABE230 12.5 µg/mg MPs; Det Ab 1000 ng/mL; SMN 22.22 pg/mL
[11] = biological target: endogenous SMN protein in human CSF (human) (UniProt Q16637); assay: Erenna sandwich assay, capture MABE230; human CSF sample 1, unspiked (endogenous SMN only)
[12] = biological target: endogenous SMN protein in human CSF (human) (UniProt Q16637); assay: Erenna sandwich assay, capture MABE230; human CSF sample 3, unspiked (endogenous SMN only)
[13] = biological target: endogenous SMN protein in human CSF (human) (UniProt Q16637); assay: Erenna sandwich assay, capture MABE230; human CSF sample 5, unspiked (endogenous SMN only)
[14] = biological target: His-tagged recombinant human SMN protein (ProteinTech, catalog # ag14333) (human) (UniProt Q16637); assay: Erenna sandwich assay, capture MABE230; SMN 2 pg/mL, MPs 10 µg/well, Det Ab 50 ng/mL, Cap Ab/MP 25 µg/mg
[15] = biological target: His-tagged recombinant human SMN protein (ProteinTech, catalog # ag14333) (human) (UniProt Q16637); assay: Erenna sandwich assay, capture MABE230; SMN 2 pg/mL, MPs 10 µg/well, Det Ab 100 ng/mL, Cap Ab/MP 25 µg/mg
[16] = biological target: His-tagged recombinant human SMN protein (ProteinTech, catalog # ag14333) (human) (UniProt Q16637); assay: Erenna sandwich assay, capture MABE230; SMN 2 pg/mL, MPs 5 µg/well, Det Ab 1000 ng/mL, Cap Ab/MP 25 µg/mg
[17] = biological target: His-tagged recombinant human SMN protein (ProteinTech, catalog # ag14333) (human) (UniProt Q16637); assay: Erenna sandwich assay, capture MABE230; SMN 2 pg/mL, MPs 10 µg/well, Det Ab 50 ng/mL, Cap Ab/MP 12.5 µg/mg
[18] = biological target: His-tagged recombinant human SMN protein (ProteinTech, catalog # ag14333) (human) (UniProt Q16637); assay: Erenna sandwich assay, capture MABE230; SMN 2 pg/mL, MPs 10 µg/well, Det Ab 100 ng/mL, Cap Ab/MP 12.5 µg/mg
[19] = biological target: His-tagged recombinant human SMN protein (ProteinTech, catalog # ag14333) (human) (UniProt Q16637); assay: Erenna sandwich assay, capture MABE230; SMN 2 pg/mL, MPs 10 µg/well, Det Ab 1000 ng/mL, Cap Ab/MP 12.5 µg/mg
[20] = biological target: His-tagged recombinant human SMN protein (ProteinTech, catalog # ag14333) (human) (UniProt Q16637); assay: Erenna sandwich assay, capture MABE230; human CSF sample 1 spiked with recombinant SMN 5.0 pg/mL (endogenous SMN also present)
[21] = biological target: His-tagged recombinant human SMN protein (ProteinTech, catalog # ag14333) (human) (UniProt Q16637); assay: Erenna sandwich assay, capture MABE230; human CSF sample 3 spiked with recombinant SMN 5.0 pg/mL (endogenous SMN also present)
[22] = biological target: His-tagged recombinant human SMN protein (ProteinTech, catalog # ag14333) (human) (UniProt Q16637); assay: Erenna sandwich assay, capture MABE230; human CSF sample 1 spiked with recombinant SMN 10.0 pg/mL (endogenous SMN also present)

Kd [1]: < 1 pM | koff [1]: < 1e-07 s⁻¹ | kon [1]: 118000 M⁻¹ s⁻¹ | detected events (DE) (detected events) [2]: 91 | event photons (EP) (event photons) [2]: 14200 | detected events (DE) (detected events) [3]: 967 | event photons (EP) (event photons) [3]: 135000 | detected events (DE) (detected events) [4]: 3190 | event photons (EP) (event photons) [4]: 497000 | detected events (DE) (detected events) [5]: 330 | event photons (EP) (event photons) [5]: 44800 | detected events (DE) (detected events) [6]: 2140 | event photons (EP) (event photons) [6]: 312000 | detected events (DE) (detected events) [7]: 4330 | event photons (EP) (event photons) [7]: 706000 | detected events (DE) (detected events) [8]: 7200 | event photons (EP) (event photons) [8]: 1.32e+06 | detected events (DE) (detected events) [9]: 12000 | event photons (EP) (event photons) [9]: 9.53e+06 | detected events (DE) (detected events) [10]: 13100 | event photons (EP) (event photons) [10]: 4.64e+06 | detected events (DE) (detected events) [11]: 330 | detected events (DE) (detected events) [12]: 278 | detected events (DE) (detected events) [13]: 479 | detected events (DE) (detected events) [14]: 776 | detected events (DE) (detected events) [15]: 1130 | detected events (DE) (detected events) [16]: 2180 | detected events (DE) (detected events) [17]: 681 | detected events (DE) (detected events) [18]: 1050 | detected events (DE) (detected events) [19]: 2920 | detected events (DE) (detected events) [20]: 5070 | detected events (DE) (detected events) [21]: 5980 | detected events (DE) (detected events) [22]: 9730
Substance: ProteinTech anti-SMN2 (catalog #60154-1-Ig) (antibody)
